Reference: patent publication US12583888B2, “Bi-specific extracellular matrix binding peptides and methods of use thereof” (University of Tartu, priority 2019, dated 2026)
No end group written: not given here.

Assays:
M21 cells = test: Cell binding and internalization of CF555-labeled AgNPs; type: cell-based; settings: NRP-1-negative M21, 1 h incubation
Method: (§1) U87-MG, PPC1, and M21 cells cultured on glass coverslips were incubated with CF555-labeled AgNPs at 37° C. for 1 hour, followed by washing with medium to remove background AgNPs. Etching solution freshly diluted from 0.2 M stock solutions of Na2S2O3 and K3Fe(CN)6 to 10 mM working concentration in PBS was applied to cells for 3 minutes, followed by PBS washes. The cells on coverslips were fixed with −20° C. methanol for 1 minute. The cell membrane was visualized by staining with Alexa Fluor 488-labeled wheat germ agglutinin (WGA) at 1:1000 at RT for 1 h. […] Fluoromount-G (Electron Microscopy Sciences) medium was used to mount the coverslips on microscope slides for confocal imaging.

fibronectin EDB-domain = target: T1, fibronectin EDB-domain (Homo sapiens, UniProt P02751); test: PL3 phage binding to fibronectin EDB-domain
T1 construct: made in house; host or cells: E. coli BL21 Rosetta 2 (DE3) pLysS
From the text: The recovered phage was tittered and amplified for a subsequent round of selection. […] RPARPAR phage on NRP-1-coated beads was used as a positive control (Teesalu et al., 2009). Phage clones displaying heptaglycine peptide (GGGGGGG, G7 (SEQ ID NO:20)) or insert less phage clones were used as negative controls.

U87-MG glioblastoma = settings: i.v. equimolar mix, 2 h circulation
From the text: (§2) In vivo play-off was used to evaluate systemic homing of peptide phage to xenograft tumor models. The in vitro selected candidate TNC-C binding peptides, phages displaying published tumor homing peptides, and control peptides were amplified and purified by precipitation with PEG-8000 (Sigma-Aldrich, St. Louis, MO, USA), followed by CsCl2 gradient ultracentrifugation and dialysis. The amplified phage peptides were pooled in equimolar quantities, and injected intravenously (final 1×10^10 pfu in 200 μl PBS) in tumor-bearing mice for two hour circulation, after which mice were anesthetized with 2.5% avertin and intracardially perfused with DMEM intracardially. The tumors and organs were collected in lysogeny broth (LB)+1% NP40, and the tissues were homogenized using a hand-held homogenizer for phage peptide rescue. Phages in the tissue lysates were amplified in E. coli, purified by precipitation with PEG-8000 and DNA was extracted using a DNA extraction kit (High Pure PCR Template Preparation Kit; Roche, Basel, Switzerland). Next-generation sequencing of phage genomic DNA evaluated the representation of each phage in input mixture, in tumor and control organs with Ion Torrent system (Thermo Fisher Scientific, Waltham, MA, USA). The next generation deep sequencing of phage library was done using Ion Torrent according to the manufacturer's protocol with slight modification. The FASTQ data from Ion Torrent was processed by a custom python script that identified the barcodes, constant flanking residues, and extracted the reads of the correct length.

[1] = system: PC3 prostate carcinoma xenografts; settings: i.v. equimolar mix, 2 h circulation
From the text: as §2

P13 tumor = settings: i.v. equimolar mix, 2 h circulation
From the text: as §2

WT-GBM tumor = settings: i.v. equimolar mix, 2 h circulation
From the text: as §2

P3 stem cell-like tumor = settings: i.v. equimolar mix, 2 h circulation
From the text: as §2

normal brain = settings: i.v. equimolar mix, 2 h circulation
From the text: as §2

U87-MG cells = test: Cell binding and internalization of CF555-labeled AgNPs; type: cell-based, human; settings: NRP-1-positive U87-MG, 1 h incubation
Method: as §1

U87-MG xenograft = test: In vivo fluorescence imaging with the IVIS Spectrum system; set-up: species or system mice
Method: Live imaging of PL3 peptide tumor homing was assessed by in vivo fluorescence imaging with the IVIS Spectrum imaging system (PerkinElmer, Waltham, MA) in U87-MG xenograft mice model (Male, 18-20 weeks of age). AgNPs with CF647 dye-labeled neutravidin coating was functionalized with biotinylated PL3 peptide (AgNP-PL3) or control biotin (AgNP). AgNP PL3 and AgNP particles were injected intravenously into the mice. For assessment of tumor PL3 targeted delivery and homing by IVIS, mice were placed in a dark imaging chamber under isoflurane anesthesia, and imaged with the following parameters. Specific excitation filter, 650 nm; emission filter, 665 nm; auto exposure time; binning, medium; field of view, 12; f/stop, 2; open filter. The images were captured at pre-injection (0 hours) and five-hour post-injection. The signal was expressed in total Radiant Efficiency [p/s]/[μW/cm^2]. The regions of interest (ROIs) were drawn covering the whole tumor in each mouse after tissue background correction, and radiant efficiency signal was quantitated. An automated spectral unmixing algorithm was used, images were analyzed by using Living Image 4.4 software (Caliper Life Sciences, Hopkinton, MA). Three animals per experimental group were analyzed. For the receptor blocking studies, PL3-AgNP injection was preceded by systemic pre-injection of blocking TNC-C and/or NRP1 antibodies (30 μg/mouse) 15 minutes prior to injection of the AgNPs.

PPC1 cells = test: Cell binding and internalization of CF555-labeled AgNPs; type: cell-based; settings: NRP-1-positive PPC1, 1 h incubation
Method: as §1

T1 sequence (P02751 with tags, fused parts or gaps): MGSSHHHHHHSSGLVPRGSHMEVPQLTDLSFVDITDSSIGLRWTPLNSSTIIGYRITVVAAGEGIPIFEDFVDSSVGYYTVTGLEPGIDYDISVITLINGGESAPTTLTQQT

| Substance | cellular uptake (M21 cells) | binding to fibronectin EDB-domain (fibronectin EDB-domain) | Representation of phage in tumors (fold G7 control phage), U87-MG (U87-MG glioblastoma) [fold] | Representation of phage in tumors (fold G7 control phage), PC3 [1] [fold] | Representation of phage in tumors (fold G7 control phage), P13 (P13 tumor) [fold] | Representation of phage in tumors (fold G7 control phage), WT-GBM (WT-GBM tumor) [fold] | Representation of phage in tumors (fold G7 control phage), P3 SCL (P3 stem cell-like tumor) [fold] | Representation of phage in control brain tissue (fold G7 control phage), Norm. brain (normal brain) [fold] | cellular uptake (U87-MG cells) | accumulation in glioma lesions more than control non-peptide CF647-AgNP (U87-MG xenograft; 5 hours, i.v.) [fold] | tumor homing on coadministration with blocking antibodies (U87-MG xenograft; cocktail of both antibodies) | tumor homing on coadministration with blocking antibodies (U87-MG xenograft; rabbit polyclonal antibodies against either TNC-C or NRP-1) | cellular uptake (PPC1 cells) |
| --- | --- | --- | --- | --- | --- | --- | --- | --- | --- | --- | --- | --- | --- |
| AGRGRLVR [PL3] | low background-like uptake | did not bind | 2.1 | 3.9 | 4.7 | 24.1 | 2.1 | 0.4 | – | – | – | – | – |
| PL3-AgNPs: dye-labeled neutravidin-coated silver nanoparticles functionalized with biotinylated PL3 peptide (AGRGRLVR; also: biotinylated, bound to dye-labeled neutravidin-coated silver nanoparticles) | – | – | – | – | – | – | – | – | robustly endocytosed with perinuclear accumulation | ~10 | almost completely inhibited the tumor accumulation | decrease in tumor homing | robustly endocytosed with perinuclear accumulation |
